Laboratory results: publication PMC6795519

Biological target: PIP3-dependent Rac exchanger 1 (P-Rex1), residues 38 to 1659 (human) (UniProt Q8TCU6)
Chain of UniProt Q8TCU6 (Q8TCU6 38-1659): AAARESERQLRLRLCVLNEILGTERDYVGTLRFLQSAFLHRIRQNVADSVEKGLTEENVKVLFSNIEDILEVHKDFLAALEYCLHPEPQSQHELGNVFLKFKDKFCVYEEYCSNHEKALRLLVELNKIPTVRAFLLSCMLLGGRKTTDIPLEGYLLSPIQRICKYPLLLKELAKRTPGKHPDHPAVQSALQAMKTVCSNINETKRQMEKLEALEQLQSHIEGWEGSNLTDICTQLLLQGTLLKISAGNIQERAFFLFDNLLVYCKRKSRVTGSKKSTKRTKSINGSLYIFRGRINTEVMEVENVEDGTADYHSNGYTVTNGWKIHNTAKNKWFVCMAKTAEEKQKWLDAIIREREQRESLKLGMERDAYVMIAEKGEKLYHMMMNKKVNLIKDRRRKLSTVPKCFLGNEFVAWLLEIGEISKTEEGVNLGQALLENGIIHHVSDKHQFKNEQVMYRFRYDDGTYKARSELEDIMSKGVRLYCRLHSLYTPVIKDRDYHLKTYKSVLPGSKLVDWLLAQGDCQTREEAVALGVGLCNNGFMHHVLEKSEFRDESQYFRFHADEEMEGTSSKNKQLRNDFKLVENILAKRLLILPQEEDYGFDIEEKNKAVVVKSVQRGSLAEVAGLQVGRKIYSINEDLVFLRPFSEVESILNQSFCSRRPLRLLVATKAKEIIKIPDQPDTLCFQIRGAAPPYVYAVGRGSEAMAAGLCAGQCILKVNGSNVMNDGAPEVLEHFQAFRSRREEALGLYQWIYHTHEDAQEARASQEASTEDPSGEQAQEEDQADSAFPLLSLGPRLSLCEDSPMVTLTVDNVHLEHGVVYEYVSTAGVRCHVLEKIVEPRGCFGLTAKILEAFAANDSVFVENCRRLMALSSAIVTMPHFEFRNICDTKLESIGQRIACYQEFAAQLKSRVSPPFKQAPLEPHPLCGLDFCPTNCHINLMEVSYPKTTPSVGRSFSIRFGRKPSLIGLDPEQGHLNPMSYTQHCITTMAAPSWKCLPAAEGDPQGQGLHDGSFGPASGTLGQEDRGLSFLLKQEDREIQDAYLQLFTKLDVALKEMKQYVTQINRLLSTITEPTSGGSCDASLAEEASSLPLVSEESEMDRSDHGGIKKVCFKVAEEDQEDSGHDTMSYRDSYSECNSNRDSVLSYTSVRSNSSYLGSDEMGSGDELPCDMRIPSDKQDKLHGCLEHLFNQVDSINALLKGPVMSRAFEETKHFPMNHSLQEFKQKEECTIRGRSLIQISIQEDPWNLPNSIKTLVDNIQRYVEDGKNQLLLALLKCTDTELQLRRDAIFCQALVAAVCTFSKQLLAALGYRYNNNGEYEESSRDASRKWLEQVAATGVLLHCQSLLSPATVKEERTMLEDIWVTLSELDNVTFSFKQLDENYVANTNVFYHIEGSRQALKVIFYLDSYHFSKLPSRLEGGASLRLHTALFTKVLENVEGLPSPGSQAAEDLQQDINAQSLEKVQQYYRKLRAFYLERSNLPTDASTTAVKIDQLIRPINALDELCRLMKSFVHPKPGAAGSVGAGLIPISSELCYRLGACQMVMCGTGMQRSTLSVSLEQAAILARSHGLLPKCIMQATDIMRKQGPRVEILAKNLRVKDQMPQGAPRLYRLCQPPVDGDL

liposome-based GEF assay, Gβγ dose-response (0.5 μM PIP3): EC50 of activation of P-Rex1 against WT Gβγ; lower efficacy than WT: 10 fold
Substance: Geranylgeranylated human Gβ1γ2 with Gβ W332A (from UniProt P62873 1-340; P59768 1-71) (complex)
